Laboratory results as given in patent publication EP4585616A1, “ANTIBODY CAPABLE OF SPECIFICALLY BINDING TO ROR1, […] THEREOF, AND PREPARATION METHOD THEREFOR AND USE THEREOF” (Hefei Institutes of Physical Science, Chinese Academy of …, priority 2022, dated 2024).

Assays:
[1] = molecular target: T1, human ROR1 on the surface of tumor cells (human, UniProt Q01973 30-937); assay: FACS, MDA-MB-231 cells
T1 construct: whole, on cells; also called ROR1 on the cell surface; tumor cell ROR1

[2] = molecular target: T2, Extracellular domain of human ROR1 protein (ROR1-ECD) (human, UniProt Q01973 30-403); assay: ELISA, plate-coated ROR1-ECD
T2 construct: Expressed in HEK293T cells; also called human ROR1-ECD; purified human ROR1 protein extracellular segment
T2 sequence (Q01973 other isoform, or with tags, fused parts or gaps): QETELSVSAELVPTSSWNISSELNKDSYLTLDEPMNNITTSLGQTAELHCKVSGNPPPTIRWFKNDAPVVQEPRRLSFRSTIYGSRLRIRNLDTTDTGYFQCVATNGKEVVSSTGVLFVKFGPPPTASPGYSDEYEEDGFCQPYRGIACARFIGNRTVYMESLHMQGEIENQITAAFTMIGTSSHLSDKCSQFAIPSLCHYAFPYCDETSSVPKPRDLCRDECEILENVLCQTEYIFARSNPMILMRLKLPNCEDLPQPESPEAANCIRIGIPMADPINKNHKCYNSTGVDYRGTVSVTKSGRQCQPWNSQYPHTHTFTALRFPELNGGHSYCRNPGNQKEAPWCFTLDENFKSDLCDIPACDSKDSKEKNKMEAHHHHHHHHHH

[3] = molecular target: T1, human ROR1 on the surface of tumor cells; assay: cell-based or functional assay
[4] = molecular target: T2, Extracellular domain of human ROR1 …; assay: ELISA, purified ROR1-ECD
[5] = molecular target: T3, ROR1 extracellular segment with Frizzled domain removed on CHO cells (human, UniProt Q01973 30-472, limits assumed); assay: FACS, CHO-ROR1 (with Frizzled domain removed) cells
T3 construct: Transfected into CHO cells; also called CHO-ROR1 (with Frizzled domain removed)
T3 sequence (Q01973 other isoform, or with tags, fused parts or gaps limits assumed): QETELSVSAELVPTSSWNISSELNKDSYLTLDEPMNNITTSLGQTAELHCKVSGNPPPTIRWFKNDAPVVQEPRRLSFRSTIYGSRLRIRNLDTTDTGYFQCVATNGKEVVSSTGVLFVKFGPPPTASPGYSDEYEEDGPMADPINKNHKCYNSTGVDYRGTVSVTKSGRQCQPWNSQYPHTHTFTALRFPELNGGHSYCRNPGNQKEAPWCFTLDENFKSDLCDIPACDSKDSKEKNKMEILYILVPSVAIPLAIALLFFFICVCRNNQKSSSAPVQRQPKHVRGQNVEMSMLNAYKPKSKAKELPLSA

[6] = molecular target: T4, ROR1 extracellular segment with Ig-like domain removed on CHO cells (human, UniProt Q01973 30-472, limits assumed); assay: FACS, CHO-ROR1 (with Ig-like domain removed) cells
T4 construct: Transfected into CHO cells; also called CHO-ROR1 (with Ig-like domain removed)
T4 sequence (Q01973 other isoform, or with tags, fused parts or gaps limits assumed): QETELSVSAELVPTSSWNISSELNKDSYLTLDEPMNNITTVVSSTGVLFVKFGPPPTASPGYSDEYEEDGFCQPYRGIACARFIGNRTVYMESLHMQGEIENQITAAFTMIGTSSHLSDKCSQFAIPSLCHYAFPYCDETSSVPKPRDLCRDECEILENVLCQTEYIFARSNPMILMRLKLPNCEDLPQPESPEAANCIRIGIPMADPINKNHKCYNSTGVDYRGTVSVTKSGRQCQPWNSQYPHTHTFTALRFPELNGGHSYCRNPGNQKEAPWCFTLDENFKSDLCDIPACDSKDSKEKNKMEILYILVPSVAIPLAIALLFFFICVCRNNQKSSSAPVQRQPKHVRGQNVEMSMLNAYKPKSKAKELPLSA

[7] = molecular target: T5, ROR1 extracellular segment sequence (including transmembrane) on CHO cells (human, UniProt Q01973 30-472); assay: FACS, ROR1 transferred onto CHO cell surface (summing up of Example 9)
T5 construct: Cloned into pCDNA3.1 and transfected into CHO cells; also called CHO-ROR1 (extracellular segment); CHO-ROR1
T5 sequence (Q01973 30-472 limits assumed): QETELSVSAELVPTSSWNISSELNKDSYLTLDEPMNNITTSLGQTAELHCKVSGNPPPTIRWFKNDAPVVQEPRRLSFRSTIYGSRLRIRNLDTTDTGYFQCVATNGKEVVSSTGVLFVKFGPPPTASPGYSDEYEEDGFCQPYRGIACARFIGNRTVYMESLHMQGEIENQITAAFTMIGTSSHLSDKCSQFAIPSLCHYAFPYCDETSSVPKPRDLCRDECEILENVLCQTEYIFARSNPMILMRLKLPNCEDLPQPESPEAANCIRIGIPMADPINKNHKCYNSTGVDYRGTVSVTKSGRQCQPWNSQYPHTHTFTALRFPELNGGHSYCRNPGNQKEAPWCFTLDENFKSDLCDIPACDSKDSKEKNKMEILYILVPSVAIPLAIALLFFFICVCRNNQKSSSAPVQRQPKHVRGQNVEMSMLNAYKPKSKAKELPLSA

[8] = molecular target: T1, human ROR1 on the surface of tumor cells; assay: FACS, NCI-H226 cells
[9] = molecular target: T5, ROR1 extracellular segment sequence …; assay: FACS, CHO-ROR1 (extracellular segment) cells
[10] = molecular target: T6, ROR1 extracellular segment with Kringle domain removed on CHO cells (human, UniProt Q01973 30-472, limits assumed); assay: FACS, CHO-ROR1 (with Kringle domain removed) cells
T6 construct: Transfected into CHO cells; also called CHO-ROR1 (with Kringle domain removed)
T6 sequence (Q01973 other isoform, or with tags, fused parts or gaps limits assumed): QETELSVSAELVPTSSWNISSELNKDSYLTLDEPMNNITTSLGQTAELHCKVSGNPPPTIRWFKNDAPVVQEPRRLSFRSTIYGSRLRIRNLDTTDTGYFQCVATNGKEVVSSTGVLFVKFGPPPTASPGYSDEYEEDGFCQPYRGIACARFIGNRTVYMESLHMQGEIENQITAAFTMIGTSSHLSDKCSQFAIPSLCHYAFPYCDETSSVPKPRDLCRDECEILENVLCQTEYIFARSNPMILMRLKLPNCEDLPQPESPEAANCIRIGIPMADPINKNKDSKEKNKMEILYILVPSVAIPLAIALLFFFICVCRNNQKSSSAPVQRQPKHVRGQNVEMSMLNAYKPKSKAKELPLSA

T1 sequence (Q01973 30-937): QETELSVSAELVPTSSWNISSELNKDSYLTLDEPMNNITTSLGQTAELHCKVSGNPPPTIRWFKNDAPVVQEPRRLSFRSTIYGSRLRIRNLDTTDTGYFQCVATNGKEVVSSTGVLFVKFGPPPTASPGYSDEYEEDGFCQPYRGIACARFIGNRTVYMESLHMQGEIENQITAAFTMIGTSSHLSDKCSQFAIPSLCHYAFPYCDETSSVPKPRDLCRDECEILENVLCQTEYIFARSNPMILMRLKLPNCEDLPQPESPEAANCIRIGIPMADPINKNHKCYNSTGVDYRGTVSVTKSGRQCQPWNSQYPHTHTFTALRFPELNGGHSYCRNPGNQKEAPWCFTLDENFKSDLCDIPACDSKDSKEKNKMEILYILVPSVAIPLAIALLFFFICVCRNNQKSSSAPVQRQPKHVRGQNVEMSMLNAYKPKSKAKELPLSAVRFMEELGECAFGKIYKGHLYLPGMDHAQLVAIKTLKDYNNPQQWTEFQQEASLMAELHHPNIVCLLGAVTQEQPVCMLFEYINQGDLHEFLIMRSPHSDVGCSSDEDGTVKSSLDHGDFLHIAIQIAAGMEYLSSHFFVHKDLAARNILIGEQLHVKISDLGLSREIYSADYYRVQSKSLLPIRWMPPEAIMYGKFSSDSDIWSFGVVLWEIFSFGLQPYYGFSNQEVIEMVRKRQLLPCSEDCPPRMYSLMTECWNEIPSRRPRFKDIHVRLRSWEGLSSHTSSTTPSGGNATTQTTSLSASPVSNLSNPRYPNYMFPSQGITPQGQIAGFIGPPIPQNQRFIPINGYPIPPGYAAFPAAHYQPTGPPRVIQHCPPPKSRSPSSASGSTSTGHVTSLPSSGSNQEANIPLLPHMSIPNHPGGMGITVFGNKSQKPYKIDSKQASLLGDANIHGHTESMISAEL

B1: Hu005-45 (antibody, V domains shown)
VH: EVQLVESGGGLVKPGGSLRLSCAASGFTFNSYAMSWVRQTPEKGLEWVATISDAGSYTYYPDNEKGRFTISRDNAKNSLYLQMNSLRAEDTAIYYCVRGGYYYNLYAMDYWGQGTLVTVSS
VL: DIVLTQSPDSLAVSLGERATINCKASQSVSFPGTSLMHWYQQKPGQQPKLLIYRASNLEAGVPDRFSGSGSRTDFTLTISSLQAEDVAVYYCQQSREYPWTFGGGTKVEIK
notes: Humanized
binding result [1]: binds
binding result [2]: binds

B2: Hu005-46-MMAE (antibody, human IgG1, DAR about 4.07, V domains shown)
VH: EVQLVESGGGLVKPGGSLRLSCAASGFTFNSYAMSWVRQTPGKRLEWVATISDAGSYTYYPDNEKGRFTISRDNAKNSLYLQMNSLRAEDTAIYYCVRGGYYYNLYAMDYWGQGTLVTVSS
VL: DIVLTQSPDSLAVSLGERATINCKASQSVSFPGTSLMHWYQQKPGQQPKLLIYRASNLEAGVPDRFSGSGSRTDFTLTISSLQAEDVAVYYCQQSREYPWTFGGGTKVEIK
modifications: vcMMAE on cysteines after TCEP reduction, positions not given
notes: Antibody-drug conjugate of Hu005-46 (human IgG1, Kappa) with vcMMAE
binding result [1]: binds
binding result [2]: binds

B3: mAb001c-vcMMAE (antibody, human IgG1, DAR about 3.81, V domains shown)
VH: EVRLQQSGPVLVKPGASVKMSCKASGYTFTDYNLHWVKQSHRQSLEWIGYINPNHDGTSYNQKFQGKATLTVDRSSSTAYMEFRSLTSEDSAVYYCARRVRTGTGLDDWGQGTTLTVSS
VL: DVLMTQSPLSLPVSLGDQASISCRSSHNIVHTNGNTYLEWYLQKPGQSPKLLIYKVSNRFSGVPDRFSGSGSGTYFTLTISRVEAEDLGVYYCFQGSRFPYTFGGGTKLEIK
modifications: vcMMAE on cysteines after TCEP reduction, positions not given
in vitro anti-proliferative activity IC50, HCC827 cells (CCK8) [3]: < 10 nM
in vitro anti-proliferative activity IC50, HCC1187 cells (CCK8) [3]: < 10 nM
in vitro anti-proliferative activity IC50, HT-29 cells (CCK8) [3]: < 10 nM
in vitro anti-proliferative activity IC50, MCF-7 cells (CCK8) [3]: > 100 nM
in vitro anti-proliferative activity IC50, MDA-MB-231 cells (CCK8) [3]: < 10 nM
in vitro anti-proliferative activity IC50, NCI-H446 cells (CCK8) [3]: < 10 nM
in vitro anti-proliferative activity IC50, NCI-N87 cells (CCK8) [3]: < 10 nM

B4: mAb001 (antibody, IgG2b, V domains shown)
VH: EVRLQQSGPVLVKPGASVKMSCKASGYTFTDYNLHWVKQSHRQSLEWIGYINPNHDGTSYNQKFQGKATLTVDRSSSTAYMEFRSLTSEDSAVYYCARRVRTGTGLDDWGQGTTLTVSS
VL: DVLMTQSPLSLPVSLGDQASISCRSSHNIVHTNGNTYLEWYLQKPGQSPKLLIYKVSNRFSGVPDRFSGSGSGTYFTLTISRVEAEDLGVYYCFQGSRFPYTFGGGTKLEIK
notes: Mouse monoclonal antibody, IgG2b/k
EC50 [1]: 0.073 nM
EC50 [4]: 0.049 nM

B5: mAb006 (antibody, IgG2b, V domains shown)
VH: EVQLQQSGPELVKPGASLKMSCKASGYTFPDYNIHWVKQSHGKSLEWIGYINPNNGGTTYNQKFKGKATLTVSKSSSTAYMELRSLTSEDSAVYSCARRGYGSSYAMDYWAQGTSVTVSS
VL: DVLMTQSPLSLPVSLGDQASISCRSSHIIVHTNGNTYLEWYLQKPGQSPKLLIYKVSNRFSGVPDRFSGSGSGTDFTLKISRVEAEDLGVYYCFQGSRVPYTFGGGTKLEIK
notes: as for B4
EC50 [1]: 0.19 nM
EC50 [4]: 0.059 nM

B6: mAb007 (antibody, IgG2b, V domains shown)
VH: EVQLQQSGPELVKPGASVKMSCKASGYTFTDYNMHWVKQSHGKSLEWIGYINPNNGGTSYNQKFKGKATLTVNKSSSTAYMELRSLTSDDSAVYYCARRGYGSGYAMDYWGQGTSVTVSS
VL: DVLMTQTPLSLPVSLGDQASISCRSSQSIVHTNGNTYLEWYLQNPGQSPKLLIYKVFNRFSGVPDRFSGSGSGTDFTLKISRVEAEDLGVYYCFQGSLFPYTFGGGTKLEIK
notes: as for B4
EC50 [1]: 0.15 nM
EC50 [4]: 0.066 nM

B7: mAb006c (antibody, V domains shown)
VH: EVQLQQSGPELVKPGASLKMSCKASGYTFPDYNIHWVKQSHGKSLEWIGYINPNNGGTTYNQKFKGKATLTVSKSSSTAYMELRSLTSEDSAVYSCARRGYGSSYAMDYWAQGTSVTVSS
VL: DVLMTQSPLSLPVSLGDQASISCRSSHIIVHTNGNTYLEWYLQKPGQSPKLLIYKVSNRFSGVPDRFSGSGSGTDFTLKISRVEAEDLGVYYCFQGSRVPYTFGGGTKLEIK
notes: Human-mouse chimeric
EC50 [1]: 0.4 nM
EC50 [5]: 1.64 nM
EC50 [6]: 0.37 nM
EC50 [7]: < 2 nM
EC50 [8]: 0.28 nM
EC50 [9]: 0.71 nM
EC50 [2]: 0.009 nM
EC50 [10]: 1.59 nM

B8: mAb009 (antibody, IgG2b, V domains shown)
VH: EVQLQQSGPELVKPGASLKLSCKASGYTFPDYNIHWVKQSHGKSLEWIGYINPNNGNTNYNQKFEGKATLTVSKSSSTAYMELRSLTSDDSAVYSCARRGYGSSYAMDFWGQGTSVTVSS
VL: DVLMTQTPLSLPVSLGNQASISCRSSHIIVHTNGNTYLEWYLQKPGQSPKLLIYKVSNRFSGVPDRFSGSGSGTDFTLKISRVEAEDLGVYYCFQGSRVPYTFGGGTKLEIK
notes: as for B4
EC50 [1]: 0.16 nM
EC50 [4]: 0.062 nM

B9: mAb009c (antibody, V domains shown)
VH: EVQLQQSGPELVKPGASLKLSCKASGYTFPDYNIHWVKQSHGKSLEWIGYINPNNGNTNYNQKFEGKATLTVSKSSSTAYMELRSLTSDDSAVYSCARRGYGSSYAMDFWGQGTSVTVSS
VL: DVLMTQTPLSLPVSLGNQASISCRSSHIIVHTNGNTYLEWYLQKPGQSPKLLIYKVSNRFSGVPDRFSGSGSGTDFTLKISRVEAEDLGVYYCFQGSRVPYTFGGGTKLEIK
notes: Human-mouse chimeric
EC50 [1]: 0.33 nM
EC50 [5]: 1.68 nM
EC50 [6]: 0.45 nM
EC50 [7]: < 2 nM
EC50 [8]: 0.25 nM
EC50 [9]: 0.79 nM
EC50 [2]: 0.017 nM
EC50 [10]: 1.62 nM

B10: mAb008 (antibody, IgG2b, V domains shown)
VH: EVQLQQSGPELVKPGASVKMSCKASEYTFTDYNMHWVKQSHGKSLEWIGYINPNNGGTTYNQKFKGKATLTVNKSSSTAYMELRSLTSDDSAVYYCARRGYGSGYAMDYWGQGASVTVSS
VL: DVLLTQTPLSLPVSLGDRASISCTSSQSIVHTNGNTYLEWYLQNPGQSPKLLIYKVSNRFSGVPDRFSGSGSGTDFTLKISRVEAEDLGVYYCFQGSLFPYTFGGGTKLEIK
notes: as for B4
EC50 [1]: 0.11 nM
EC50 [4]: 0.053 nM

B11: mAb001c_v1 (antibody, IgG1, V domains shown)
VH: EVRLQQSGPVLVKPGASVKMSCKASGYTFTDYNLHWVKQSHRQSLEWIGYINPNHDATSYNQKFQGKATLTVDRSSSTAYMEFRSLTSEDSAVYYCARRVRTGTGLDDWGQGTTLTVSS
VL: DVLMTQSPLSLPVSLGDQASISCRSSHNIVHTNANTYLEWYLQKPGQSPKLLIYKVSNRFSGVPDRFSGSGSGTYFTLTISRVEAEDLGVYYCFQGSRFPYTFGGGTKLEIK
notes: Chimeric mutant in hIgG1,k vector; the entries already hold the site-directed changes; also called human-mouse chimeric antibody mutant of mAb001c; site-directed mutant of mAb001c
EC50 [1]: 0.073 nM
EC50 [2]: 0.028 nM

B12: mAb003c (antibody, V domains shown)
VH: EVQLVESGGGLVKPGGSLKLSCAASGFTFSSYAMSWVRQTPEKRLEWVATISDGGSYTYYPDSVKGRFTISRDNAKNNLYLQMSHLKSEDTDMYYCVRGGYYYNLYAMDYWGQGTSVTVSS
VL: DIVLTQSPASLAVSLGQRAIISCKASQSVSFAGTSLMHWYQQKPGQQPKLLIYRASNLEAGVPTRFSGSGSRADFTLNIHPVEEDDAATYYCQQSGEYPWTFGGGTKLEIK
notes: Human-mouse chimeric
EC50 [1]: 1.1 nM
EC50 [5]: 1.78 nM
EC50 [7]: < 2 nM
EC50 [8]: 0.76 nM
EC50 [9]: 1.47 nM
EC50 [2]: 0.013 nM
EC50 [10]: 1.74 nM

B13: mAb005 (antibody, IgG2b, V domains shown)
VH: EVQLVESGGGLVKPGGSLKLSCAASGFTFNSYAMSWVRQTPEKRLEWVATISDGGSYTYYPDNEKGRFTISRDNAKNNLYLQMSHLKSEDTAIYYCVRGGYYYNLYAMDYWGQGTSVTVSS
VL: DIVLTQSPASLAVSLGQRAIISCKASQSVSFPGTSLMHWYQQKPGQQPKLLIYRASNLEAGVPTRFSGSGSRTDFTLNIHPVEEDDTATYYCQQSREYPWTFGGGTQLEIK
notes: as for B4
EC50 [1]: 0.16 nM
EC50 [4]: 0.043 nM

B14: mAb003 (antibody, IgG2c, V domains shown)
VH: EVQLVESGGGLVKPGGSLKLSCAASGFTFSSYAMSWVRQTPEKRLEWVATISDGGSYTYYPDSVKGRFTISRDNAKNNLYLQMSHLKSEDTDMYYCVRGGYYYNLYAMDYWGQGTSVTVSS
VL: DIVLTQSPASLAVSLGQRAIISCKASQSVSFAGTSLMHWYQQKPGQQPKLLIYRASNLEAGVPTRFSGSGSRADFTLNIHPVEEDDAATYYCQQSGEYPWTFGGGTKLEIK
notes: Mouse monoclonal antibody, IgG2c/k
EC50 [1]: 0.45 nM
EC50 [4]: 0.023 nM

B15: mAb005c_v1 (antibody, IgG1, V domains shown)
VH: EVQLVESGGGLVKPGGSLKLSCAASGFTFNSYAMSWVRQTPEKRLEWVATISDAGSYTYYPDNEKGRFTISRDNAKNNLYLQMSHLKSEDTAIYYCVRGGYYYNLYAMDYWGQGTSVTVSS
VL: DIVLTQSPASLAVSLGQRAIISCKASQSVSFPGTSLMHWYQQKPGQQPKLLIYRASNLEAGVPTRFSGSGSRTDFTLNIHPVEEDDTATYYCQQSREYPWTFGGGTQLEIK
notes: Chimeric mutant in hIgG1,k vector; the VH entry already holds the site-directed change; also called human-mouse chimeric antibody mutant of mAb005c; site-directed mutant of mAb005c
EC50 [1]: 0.067 nM
EC50 [2]: 0.046 nM

B16: mAb004 (antibody, IgG2b, V domains shown)
VH: EVQLVESGGGLVQPKGSLKLSCAASGFTFNTYAMHWVRQAPGKGLEWVARIRSKSSNFATYYADSVRDRFTISRDDSQSMLYLQMNNLKTEDTAMYYCVRGYGPSYFSLDYWGQGTSVTVSS
VL: DVVMTQTPLSLPVSLGDQASISCRSSQSLVHSNGNTYLHWYLQKPGQSPKLLIYKVSNRFSGVPDRFSGSGSGTDFTLKINRVEAEDLGVYFCSQSTHAIYTFGGGTKLEIK
notes: as for B4
EC50 [1]: 0.15 nM
EC50 [4]: 0.038 nM
